According to patent US20100196385A1 (AstraZeneca / MedImmune, published 2010):
Residue numbers refer to the chain shown, from its start.

Assays:
human Jagged1 [1] = target: T1, human Jagged1 (human, UniProt P78504 34-1218); test: FACS, 5 µg/ml, 293T cells with human Jagged1
T1 construct: whole, on cells
Protocol: (§1) The ability of the purified antibodies to bind to human Jagged1 and Dll1 was determined by FACS analysis. […] Cells were resuspended in PBS containing 2% FCS and seeded at 50000 cells/well into V-bottomed plates. Anti-DLL4 antibodies diluted in PBS containing 2% FCS were added at a final concentration of 5 or 15 μg/ml and plates were incubated for 1 h at 4° C. […] Data was analyzed by comparing the shift in geometric mean fluorescence in the mock-transfected cells to that observed in the Jagged1- or Dll1-transfected cells and is shown in Tables 16 and 17.

full length human DLL4 [2] = target: T2, full length human DLL4 (human, UniProt Q9NR61 27-685); test: FMAT competition, purified antibody vs Alexa-647 human Notch1/Fc, 293T cells with human DLL4
T2 construct: whole, on cells; also called native DLL4 expressed in HEK293 cells
T2 sequence (Q9NR61 27-685): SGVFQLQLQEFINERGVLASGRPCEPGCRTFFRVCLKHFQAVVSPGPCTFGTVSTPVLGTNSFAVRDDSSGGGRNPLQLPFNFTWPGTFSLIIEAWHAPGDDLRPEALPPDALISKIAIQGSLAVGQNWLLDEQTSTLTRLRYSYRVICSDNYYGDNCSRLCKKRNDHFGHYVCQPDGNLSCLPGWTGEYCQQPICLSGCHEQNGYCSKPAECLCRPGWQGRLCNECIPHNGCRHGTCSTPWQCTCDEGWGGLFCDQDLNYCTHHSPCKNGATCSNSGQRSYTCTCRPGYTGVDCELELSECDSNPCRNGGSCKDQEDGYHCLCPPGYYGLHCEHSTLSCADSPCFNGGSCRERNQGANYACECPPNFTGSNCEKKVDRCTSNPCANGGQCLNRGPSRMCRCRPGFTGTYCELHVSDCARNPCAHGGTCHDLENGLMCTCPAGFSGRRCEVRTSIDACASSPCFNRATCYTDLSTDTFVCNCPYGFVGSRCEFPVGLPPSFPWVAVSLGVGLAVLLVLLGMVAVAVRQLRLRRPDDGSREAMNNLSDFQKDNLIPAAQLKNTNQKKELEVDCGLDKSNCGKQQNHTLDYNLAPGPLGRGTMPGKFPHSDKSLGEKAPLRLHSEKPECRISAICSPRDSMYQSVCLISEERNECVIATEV
Protocol: To discriminate between the purified antibodies based upon their ability to prevent the interaction between full-length recombinant DLL4 and soluble Notch1/Fc, the following assays were performed. Transfected and untransfected 239T cells were reconstituted in PBS containing 2% FCS and 5000 transfected and 17500 non-transfected cells were plated in 30 μl into wells of a 384-well tissue culture plate (Corning Costar, catalog #3712). Subsequently, 30 μl of purified antibodies, serial diluted from 5 μg/ml hybridoma supernatant was added and plates were incubated at 4° C. for 1 h, at which time 20 μl of 100 ng/ml Alexa-647 labeled human Notch1/Fc was added. After a further 3 h incubation at 4° C., the amount of bound Notch1/Fc was determined by reading the fluorescence in each well using an FMAT 8200 instrument (Applied Biosystems).

full length human DLL4 [3] = target: T2, full length human DLL4; test: FMAT competition, supernatant vs Alexa-647 human Notch1/Fc, 293T cells with human DLL4; FMAT competition with Alexa-647 human Notch1/Fc, native human DLL4 on 293T cells, 4 C, n = 3
Protocol: (§2) Transfected and untransfected 239T cells were reconstituted in PBS containing 2% FCS and 5000 transfected and 17500 non-transfected cells were plated in 20 μl into wells of a 384-well tissue culture plate (Corning Costar, catalog #3712). Subsequently, 20 μl of hybridoma supernatant was added and plates were incubated at 4° C. for 1 h, at which time 20 μl of Alexa-647 labeled human Notch1/Fc was added at a final concentration of 6.7 ng/ml. After a further 3 h incubation at 4° C., the amount of bound Notch1/Fc was determined by reading the fluorescence in each well using an FMAT 8200 instrument (Applied Biosystems). Results are expressed as % inhibitions with the minimum inhibition in the assay being determined by the effects of non-DLL4 binding supernatants prepared in a similar way as described in example 2, and the maximum inhibition being defined as the signal obtained in the presence of a saturating concentration of unlabeled Notch1/Fc. N.T.=not tested

human Jagged1 [4] = target: T1, human Jagged1; test: FACS, 5 µg/ml, 293T cells with human Jagged1 vs mock
Protocol: as §1

human Dll1 [5] = target: T3, human Dll1 (human, UniProt O00548 18-723); test: FACS, 15 µg/ml, 293T cells with human Dll1
T3 construct: whole, on cells
T3 sequence (looked up): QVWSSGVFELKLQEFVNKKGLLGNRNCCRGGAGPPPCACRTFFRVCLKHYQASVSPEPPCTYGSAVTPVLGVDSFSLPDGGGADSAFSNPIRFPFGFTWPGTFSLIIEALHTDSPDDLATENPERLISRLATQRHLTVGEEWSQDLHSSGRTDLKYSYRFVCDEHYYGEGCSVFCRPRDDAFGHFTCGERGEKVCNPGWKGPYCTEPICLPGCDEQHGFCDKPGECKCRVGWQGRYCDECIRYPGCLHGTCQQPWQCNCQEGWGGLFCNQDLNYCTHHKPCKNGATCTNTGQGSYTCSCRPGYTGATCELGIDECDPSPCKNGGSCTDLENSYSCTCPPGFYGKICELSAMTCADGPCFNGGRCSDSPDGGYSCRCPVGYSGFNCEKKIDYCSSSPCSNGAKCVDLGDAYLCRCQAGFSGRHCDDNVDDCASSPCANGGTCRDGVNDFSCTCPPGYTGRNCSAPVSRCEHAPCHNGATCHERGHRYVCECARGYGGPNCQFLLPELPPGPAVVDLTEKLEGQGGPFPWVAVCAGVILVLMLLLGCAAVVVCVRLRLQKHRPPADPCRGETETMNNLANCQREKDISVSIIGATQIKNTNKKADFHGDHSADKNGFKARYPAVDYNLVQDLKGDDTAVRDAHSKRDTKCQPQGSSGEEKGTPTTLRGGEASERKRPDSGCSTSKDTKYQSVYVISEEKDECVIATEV
Protocol: as §1

human Dll1 [6] = target: T3, human Dll1; test: FACS, 15 µg/ml, 293T cells with human Dll1 vs mock
Protocol: as §1

human Jagged1 [7] = target: T1, human Jagged1; test: FMAT, hybridoma supernatant, 293T cells with human Jagged1
Protocol: (§3) Cells diluted in PBS containing 2% FBS were seeded at a density of 3000 expressing and 15000 mock transfected cells per well in 384 well plates (Corning Costar, catalog #3712). Immediately after plating, 15 or 20 μl/well of hybridoma supernatants and 10 μl/well of secondary antibody (Goat anti-human IgG Fc Cy5, final concentration 750 ng/ml) were added and plates incubated for 3 h at room temperature prior to reading the fluorescence on the FMAT 8200 instrument (Applied Biosystems). The binding of human Notch1/Fc chimera (R&D systems, catalog #3647-TK), diluted 1:2 from 2.86 μg/ml was used as a positive control for DLL4 and human Notch3/Fc chimera diluted from 10 μg/ml was used a positive control for binding to Jagged1. Results for 12 hybridoma supernatants showing binding of hybridoma supernatants to human/cynomolgus monkey DLL4 and human Jagged are shown in Table 3.

full length human DLL4 [8] = target: T2, full length human DLL4; test: FMAT, hybridoma supernatant, 293T cells with human DLL4; FMAT, hybridoma supernatant, native full length human DLL4 on live 293T cells, room temperature
Protocol: as §3

full length human DLL4 [9] = target: T2, full length human DLL4; test: FMAT competition, supernatant vs Alexa-647 human Notch1/Fc, 293T cells with human DLL4; FMAT competition with Alexa-647 human Notch1/Fc, native human DLL4 on 293T cells, 4 C, n = 2
Protocol: as §2

[10] = target: T4, human soluble DLL4 (R&D systems catalog #1056-D4-050) (human, UniProt Q9NR61 27-524); test: Biacore T100, antibody immobilised, soluble human DLL4 as analyte
T4 construct: Catalog number as printed; perhaps the same product as #1506-D4; also called antigen DLL4
T4 sequence (Q9NR61 27-524 limits assumed): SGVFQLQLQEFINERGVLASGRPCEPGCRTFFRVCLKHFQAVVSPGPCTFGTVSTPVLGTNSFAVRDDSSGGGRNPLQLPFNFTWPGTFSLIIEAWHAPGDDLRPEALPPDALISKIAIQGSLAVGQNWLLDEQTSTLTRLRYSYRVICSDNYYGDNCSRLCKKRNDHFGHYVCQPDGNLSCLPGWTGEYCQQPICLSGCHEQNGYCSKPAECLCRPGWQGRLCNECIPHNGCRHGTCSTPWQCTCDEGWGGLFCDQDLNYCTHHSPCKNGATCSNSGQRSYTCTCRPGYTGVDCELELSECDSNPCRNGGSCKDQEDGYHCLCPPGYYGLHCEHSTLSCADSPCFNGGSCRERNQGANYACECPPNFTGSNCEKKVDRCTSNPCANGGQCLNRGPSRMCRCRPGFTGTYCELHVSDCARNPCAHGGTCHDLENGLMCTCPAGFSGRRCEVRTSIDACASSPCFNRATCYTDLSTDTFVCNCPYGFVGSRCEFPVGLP
Protocol: For Biacore analysis, each purified anti-DLL4 antibody was immobilized on a CM5 sensor chip within a T100 using standard amine coupling. Immobilization levels were kept below 200 RU. The concentration of DLL4 was determined by UV-VIS spectroscopy using a molar absorptivity at 280 nm of 110, 440 M⁻¹cm⁻¹, which was calculated from the sequence of the protein using a method developed by Pace et al. (G. R. Grimsley and C. N. Pace (2003) in Current Protocols in Protein Science (John Wiley & Sons, Inc.), 3.1.1-3.1.9). The antigen DLL4 (R&D systems; human catalog #1056-D4-050 or mouse, catalog #1389-D4-050) was diluted to a starting concentration of 32-64 nM and tested in a 3-fold dilution series in triplicate. The running buffer contained HBS-P with 0.1 mg/ml BSA and binding responses were collected at 23° C. Bound complexes were regenerated with a 15 s pulse of 10 mM of sodium hydroxide. The response data were globally fitted with a simple 1:1 interaction model and Table 20 summarizes the kₐ, kd and KD estimates obtained for the anti-DLL4 antibodies when binding to human soluble DLL4 was assessed.

full length human DLL4 [11] = target: T2, full length human DLL4; test: FACS competition vs human Notch1/Fc, HEK293 cells with human DLL4
Protocol: (§4) Further experiments were performed on selected antibodies using HEK293 cells that were stably transfected with either human, mouse or cynomolgus monkey DLL4 using retroviral constructs. In these experiments, anti-DLL4 antibodies (final concentration: 10-0.01 μg/ml) diluted in PBS containing 2% FCS were added to DLL4-expressing HEK 293 cells (50000 cells/well diluted in PBS containing 2% FCS) and incubated for 1 h at 4° C. Subsequently, Alexa-647 labeled human, rat or APC labeled mouse Notch1/Fc (e.g. R&D Systems, catalog #3647-TK-050, 1057-TK-050, 5267-TK-050, respectively) was added at a final concentration of 0.01-0.5 μg/ml and plates were incubated for a further 2 h at 4° C. prior to washing and reading on a FACSCalibur instrument.

full length mouse DLL4 = target: T5, full length mouse DLL4 (mouse, UniProt Q9JI71 27-686); test: FACS competition vs rat Notch1/Fc, HEK293 cells with mouse DLL4
T5 construct: whole, on cells
T5 sequence (Q9JI71 27-686): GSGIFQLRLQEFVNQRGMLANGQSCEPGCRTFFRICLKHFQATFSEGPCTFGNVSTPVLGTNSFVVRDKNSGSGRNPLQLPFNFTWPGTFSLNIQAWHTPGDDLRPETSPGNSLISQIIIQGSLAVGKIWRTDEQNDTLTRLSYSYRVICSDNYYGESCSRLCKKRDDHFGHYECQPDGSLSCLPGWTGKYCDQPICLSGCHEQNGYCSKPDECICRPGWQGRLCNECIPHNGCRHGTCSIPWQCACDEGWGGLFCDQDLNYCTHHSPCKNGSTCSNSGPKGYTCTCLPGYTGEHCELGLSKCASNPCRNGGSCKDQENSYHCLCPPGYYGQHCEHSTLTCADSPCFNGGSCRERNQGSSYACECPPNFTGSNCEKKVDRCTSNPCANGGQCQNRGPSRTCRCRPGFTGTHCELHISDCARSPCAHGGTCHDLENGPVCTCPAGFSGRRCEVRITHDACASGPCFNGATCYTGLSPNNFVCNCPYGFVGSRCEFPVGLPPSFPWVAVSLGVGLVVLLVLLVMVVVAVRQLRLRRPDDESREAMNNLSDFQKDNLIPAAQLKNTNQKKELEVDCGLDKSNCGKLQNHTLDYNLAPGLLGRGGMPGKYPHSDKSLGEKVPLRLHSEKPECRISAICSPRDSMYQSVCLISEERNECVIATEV
Protocol: as §4

full length human DLL4 [12] = target: T2, full length human DLL4; test: FACS titration, HEK293 cells with human DLL4
Protocol: The binding affinities of the purified antibodies for DLL4 was estimated using is both FACS and BIAcore techniques. […] The cells were then washed and incubated with goat anti-human IgG-Fc-Cy5+5 μg/mL 7-Amino-Actinomycin (7AAD) for 30 minutes at 4° C.
In this equation, F=mean fluorescence, LT=total molecular mAb concentration, P′=proportionality constant that relates arbitrary fluorescence units to bound mAb, M=cellular concentration in molarity, n=number of receptors per cell, B=background signal, and KD=equilibrium dissociation constant. For each mAb titration curve an estimate for KD is obtained as P′, n, B, and KD are allowed to float freely in the nonlinear analysis. Table 20 summarizes the affinity estimates for the anti-DLL4 antibodies for human and cynomolgus monkey DLL4 derived using the methodology described above

T1 sequence (P78504 34-1218): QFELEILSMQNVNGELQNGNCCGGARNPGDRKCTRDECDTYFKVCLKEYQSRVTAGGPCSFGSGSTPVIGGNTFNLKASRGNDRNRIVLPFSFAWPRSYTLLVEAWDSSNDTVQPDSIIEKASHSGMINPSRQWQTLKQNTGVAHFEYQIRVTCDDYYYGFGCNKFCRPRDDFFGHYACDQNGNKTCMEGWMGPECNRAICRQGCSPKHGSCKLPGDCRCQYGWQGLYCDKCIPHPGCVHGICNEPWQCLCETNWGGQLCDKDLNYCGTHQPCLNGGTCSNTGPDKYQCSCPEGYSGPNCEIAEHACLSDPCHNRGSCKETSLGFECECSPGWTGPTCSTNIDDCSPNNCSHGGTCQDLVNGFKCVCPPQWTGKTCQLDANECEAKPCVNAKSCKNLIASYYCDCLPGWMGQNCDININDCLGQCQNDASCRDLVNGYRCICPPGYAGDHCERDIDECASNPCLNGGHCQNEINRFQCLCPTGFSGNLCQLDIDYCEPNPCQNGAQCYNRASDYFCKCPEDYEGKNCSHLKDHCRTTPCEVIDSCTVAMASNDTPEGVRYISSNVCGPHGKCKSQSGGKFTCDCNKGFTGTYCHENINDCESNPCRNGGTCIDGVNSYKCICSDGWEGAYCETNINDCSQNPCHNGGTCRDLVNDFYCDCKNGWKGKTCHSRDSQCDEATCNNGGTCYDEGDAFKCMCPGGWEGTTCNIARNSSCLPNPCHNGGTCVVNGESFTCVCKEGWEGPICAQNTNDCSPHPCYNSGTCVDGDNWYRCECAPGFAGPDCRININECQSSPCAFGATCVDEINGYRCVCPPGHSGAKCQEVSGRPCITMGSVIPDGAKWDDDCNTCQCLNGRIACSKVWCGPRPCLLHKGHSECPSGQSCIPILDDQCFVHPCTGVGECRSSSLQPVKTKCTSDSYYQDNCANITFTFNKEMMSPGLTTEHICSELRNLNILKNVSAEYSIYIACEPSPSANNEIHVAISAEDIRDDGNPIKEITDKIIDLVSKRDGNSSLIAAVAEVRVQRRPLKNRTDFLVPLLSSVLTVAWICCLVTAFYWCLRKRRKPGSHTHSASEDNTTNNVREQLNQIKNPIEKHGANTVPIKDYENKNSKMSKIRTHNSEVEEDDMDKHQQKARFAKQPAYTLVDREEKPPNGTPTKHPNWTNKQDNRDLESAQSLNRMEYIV

B1: 20G8 (antibody, IgG4, V domains shown)
VH: QVQLVQSGAEVKKPGASVKVSCKASGYTFTSYGISWVRQAPGQGLEWMGWISVYNGNTNYAQKLQGRVTMTTDTSTSTAYMEVRSLRSDDTAVYYCARDRVPRIPRTTEAFDIWGRGTMVTVCS
VL: QSVLTQPPSASGTPGQRVTISCSGSSSNIGSYYVYWYQQLPGTAPKLLIYRDNQRPSGVPDRFSGSKSGTSASLAIRGLRSDDEADYYCAAWDDSLSGHWVFGGGTKLTVL
notes: Fully human; also used where no isotype is printed
B1 was tested, and the “Jagged1/293T X Geo mean” value (human Jagged1 [1]) was 16, the “% inhibition at 0.020 nM” value (full length human DLL4 [2]) was -5% and the “% inhibition at 0.070 nM” value (full length human DLL4 [2]) was 3%. The “% inhibition at 0.21 nM” value (full length human DLL4 [2]) was -4%, the “% inhibition at 0.62 nM” value (full length human DLL4 [2]) was -14% and the “% inhibition at 1.9 nM” value (full length human DLL4 [2]) was 29%. For the same binder, the “% inhibition at 5.6 nM” value (full length human DLL4 [2]) was 114%, the “% inhibition at 16.7 nM” value (full length human DLL4 [2]) was 115% and the IC50 (full length human DLL4 [2]) was 2.02 nM. For the same binder, the “% inhibition n = 3” value (full length human DLL4 [3]) was 143%, the Jagged1/mock ratio (human Jagged1 [4]) was 1.12 and the “Dll1/293T X Geo mean” value (human Dll1 [5]) was 40. For the same binder, the Dll1/mock ratio (human Dll1 [6]) was 1.34, the Count (human Jagged1 [7]) was 3 and the FL1 (human Jagged1 [7]) was 1500. For the same binder, the FL1 x count (human Jagged1 [7]) was 4490, the Count (full length human DLL4 [8]) was 182 and the FL1 (full length human DLL4 [8]) was 10500. The FL1 x count (full length human DLL4 [8]) was 1.9e+06 and the “% inhibition n = 2” value (full length human DLL4 [9]) was 88%.

B2: 21H3 IgG2 (antibody, V domains shown)
VH: B1 VH with S31N, S35T, L45P, V53A, G66D, M70V, V83L, R106V, R116Q, C123S
VL: B1 VL with Y33F, D52N, K67E, R77S, D82E, K107R
notes: Formatted as IgG2
A Kd [10] of 0.598 nM, a koff [10] of 0.000155 s⁻¹ and a kon [10] of 259000 M⁻¹ s⁻¹ were found for B2 in this work. The IC50 (full length human DLL4 [11]) was 0.73 nM, the IC50 (full length mouse DLL4) was 13.5 nM and the Kd (full length human DLL4 [12]) was 0.32 nM.

B3: 21H3RK IgG2 (antibody, V domains shown)
VH: B1 VH with S31N, S35T, L45P, V53A, G66D, M70V, V83L, R106V, R116Q, C123S
VL: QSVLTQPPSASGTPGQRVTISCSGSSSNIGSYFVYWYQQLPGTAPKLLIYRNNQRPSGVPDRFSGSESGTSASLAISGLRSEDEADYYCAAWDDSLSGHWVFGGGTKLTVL
notes: IgG2
A Kd [10] of 0.721 nM, a koff [10] of 0.00016 s⁻¹ and a kon [10] of 222000 M⁻¹ s⁻¹ were found for B3 in this work. For the same binder, the IC50 (full length human DLL4 [11]) was 0.75 nM, the IC50 (full length mouse DLL4) was 15.6 nM and the Kd (full length human DLL4 [12]) was 0.225 nM.
